Experimental data: publication PMC10889005

Target: KPNA4 (UniProt O00629)
Assay: pull-down/IP from co-transfected cells
Details: reference: IRF3 wild type; sites S97

IRF3 (from UniProt Q14653) IRF3 S97A
binding against the reference: stronger
